# Laboratory results published in US20150087812A1 (Janssen / Centocor, published 2015).
# Positions count from the first letter of the chain named.
# B1: mAb ATXB6 (antibody, V domains shown)
# VH: QVQLVQSGAEVKKPGSSVKVSCKASGGTFSSYAISWVRQAPGQGLEWMGGIIPIFGTANYAQKFQGRVTITADESTSTAYMELSSLRSEDTAVYYCARDLYIYGDLDYWGQGTLVTVSS
# VL: DIQMTQSPSSLSASVGDRVTITCRASQSIGGWLNWYQQKPGKAPKLLIYTASSLQSGVPSRFSGSGSGTDFTLTISSLQPEDFATYYCQQSYTYPITFGQGTKVEIK
# notes: Human IgG1/kappa from Fab F73
# B2: mAb ATXB7 (antibody, V domains shown)
# VH: QVQLVQSGAEVKKPGSSVKVSCKASGGTFSSYAISWVRQAPGQGLEWMGGIIPIFGTANYAQKFQGRVTITADESTSTAYMELSSLRSEDTAVYYCARPIGTGYYGFFDYWGQGTLVTVSS
# VL: B1 VL with G30A, G31K, T50F, T93S, Y94T, I96L
# B3: mAb ATXB14 (antibody, V domains shown)
# VH: B1 VH with T57N, A58T, L100I, Y101S, I102G
# VL: B1 VL with G30D, T50A, T93S, Y94T, I96L
# notes: Human IgG1/kappa from Fab F104
# B4: mAb ATXB13 (antibody, V domains shown)
# VH: B1 VH with L100F, Y101S, I102V, L106F
# VL: B1 VL with G30A, G31K, T50A, T93S, Y94T, I96L
# notes: Human IgG1/kappa from Fab F143
# B5: mAb ATXB8 (antibody, V domains shown)
# VH: B1 VH with L100S, Y101S, I102A, L106F
# VL: B1 VL with G30D, T50A, T93S, Y94T, I96L
# notes: Human IgG1/kappa from Fab F96
# B6: mAb ATXB9 (antibody, V domains shown)
# VH: QVQLVQSGAEVKKPGSSVKVSCKASGGTFSSYAISWVRQAPGQGLEWMGGISPYFGNANYAQKFQGRVTITADESTSTAYMELSSLRSEDTAVYYCARYGDFGGNVFTEFDYWGQGTLVTVSS
# VL: EIVLTQSPGTLSLSPGERATLSCRASQSVNNSDLAWYQQKPGQAPRLLIYTASSRATGIPDRFSGSGSGTDFTLTISRLEPEDFAVYYCQQATTVPLTFGQGTKVEIK
# notes: Human IgG1/kappa from Fab F89
# B7: mAb ATXB18 (antibody, V domains shown)
# VH: B1 VH with L100A, Y101S, I102T
# VL: B1 VL with G30D, T50A, T93S, Y94T, I96L
# notes: Human IgG1/kappa from Fab F97
# B8: mAb ATXB3 (antibody, V domains shown)
# VH: EVQLVQSGAEVKKPGESLKISCKGSGYSFTSYWIGWVRQMPGKGLEWMGIIYPGDSDTRYSPSFQGQVTISADKSISTAYLQWSSLKASDTAMYYCARPYGTFDYWGQGTLVTVSS
# VL: EIVLTQSPATLSLSPGERATLSCRASQSVADSLAWYQQKPGQAPRLLIYKASNRATGIPARFSGSGSGTDFTLTISSLEPEDFAVYYCQQSNGWPRTFGQGTKVEIK
# notes: Human IgG1/kappa from Fab F17
# Molecular target: recombinant mouse ATX beta isoform (R&D Systems, Cat No. 6187-EN-010) (mouse, UniProt Q9R1E6 36-862)
# Assay: cell-based or functional assay
row,Binder,"IC50, inhibition of LPC hydrolysis by mouse ATX, coupled choline oxidation (Amplex Red) assay"
1,B1,0.3 nM
2,B2,217 nM
3,B3,1.5 nM
4,B4,0.5 nM
5,B5,0.8 nM
6,B6,9.3 nM

# Molecular target: T1, recombinant human ATX beta isoform with N-terminal purification tag (human, UniProt Q13822 49-863)
# Assay: SPR ProteOn XPR36, protocol similar to the Biacore one, bivalent analyte model
# Experimental: Affinity measurements using surface plasmon resonance (SPR) were performed using a Biacore 3000 optical biosensor (Biacore) for ATXB3, ATXB6, ATXB8, ATXB9, ATXB13, and ATXB14. A biosensor surface was prepared by coupling anti-Penta-His antibody (Qiagen, Cat No. 34660) to the carboxymethylated dextran surface of a CM-5 chip (Biacore, Cat No. BR-1000-14) using the manufacturer instructions for amine-coupling chemistry. Approximately 15,000 RU (response units) of anti-Penta-His antibody were immobilized in each of four flow cells. The kinetic experiments were performed at 25° C. in running buffer (PBS+0.01% P20+100 ug/ml BSA). Serial dilutions of anti-ATX mAbs (ATXB3, B6, B8, B9, B13, B14) from 900 nM to 0.412 nM were prepared in running buffer. About 80 RU of human ATX beta-His tagged proteins were captured on flow cell 2 of the sensor chip. Flow cell 1 was used as reference surface. Capture of ATX was followed by five minutes injection (association phase) of anti-ATX mAbs at 50 uL/min, followed by 15 minutes of buffer flow (dissociation phase). The chip surface was regenerated by 15 seconds injection of 100 mM H₃PO₄ (Sigma, Cat No. 7961) at 50 uL/min. The collected data were processed using BIAevaluation software, version 3.2 (Biacore). First, double reference subtraction of the data was performed by subtracting the curves generated by buffer injection from the reference-subtracted curves for analyte injections. Then kinetic analysis of the data was performed using the Bivalent Analyte binding model with global fitting. Kd1 (Kₒₙ) was calculated as intrinsic KD with minimum avidity. The result for each mAb was reported in the format of Ka1 (On-rate, Kₒₙ), Kd1 (Off-rate, Koff) and KD1 (Equilibrium dissociation constant). […]
# The five mAbs with the lowest IC50 values in the inhibition assays as well as ATXB3, a non-neutralizing antibody, were tested for their affinity to the human ATX-beta isoform, as measured by surface plasmon resonance. […]
Binder,Kd,koff,kon
B7,0.673 nM,0.000614 s⁻¹,949000 M⁻¹ s⁻¹

# Molecular target: T1, recombinant human ATX beta isoform with …
# Assay: cell-based or functional assay
row,Binder,"IC50, inhibition of LPC hydrolysis by human ATX beta (1.5 nM), coupled choline oxidation (Amplex Red) assay"
1,B1,1 nM
2,B2,158 nM
3,B3,0.8 nM
4,B4,1 nM
5,B5,0.7 nM
6,B6,14.5 nM

# Molecular target: T1, recombinant human ATX beta isoform with …
# Assay: SPR Biacore 3000, His-ATX beta captured on anti-Penta-His, mAb as analyte, bivalent analyte model
# Experimental: Affinity measurements using surface plasmon resonance (SPR) were performed using a Biacore 3000 optical biosensor (Biacore) for ATXB3, ATXB6, ATXB8, ATXB9, ATXB13, and ATXB14. A biosensor surface was prepared by coupling anti-Penta-His antibody (Qiagen, Cat No. 34660) to the carboxymethylated dextran surface of a CM-5 chip (Biacore, Cat No. BR-1000-14) using the manufacturer instructions for amine-coupling chemistry. Approximately 15,000 RU (response units) of anti-Penta-His antibody were immobilized in each of four flow cells. The kinetic experiments were performed at 25° C. in running buffer (PBS+0.01% P20+100 ug/ml BSA). Serial dilutions of anti-ATX mAbs (ATXB3, B6, B8, B9, B13, B14) from 900 nM to 0.412 nM were prepared in running buffer. About 80 RU of human ATX beta-His tagged proteins were captured on flow cell 2 of the sensor chip. Flow cell 1 was used as reference surface. Capture of ATX was followed by five minutes injection (association phase) of anti-ATX mAbs at 50 uL/min, followed by 15 minutes of buffer flow (dissociation phase). The chip surface was regenerated by 15 seconds injection of 100 mM H₃PO₄ (Sigma, Cat No. 7961) at 50 uL/min. The collected data were processed using BIAevaluation software, version 3.2 (Biacore). First, double reference subtraction of the data was performed by subtracting the curves generated by buffer injection from the reference-subtracted curves for analyte injections. Then kinetic analysis of the data was performed using the Bivalent Analyte binding model with global fitting. Kd1 (Kₒₙ) was calculated as intrinsic KD with minimum avidity. The result for each mAb was reported in the format of Ka1 (On-rate, Kₒₙ), Kd1 (Off-rate, Koff) and KD1 (Equilibrium dissociation constant). Affinity measurements for ATXB18 were performed on a Proteon XPR36 system (Bio-Rad), using a protocol similar to the one used on the Biacore platform.
# The five mAbs with the lowest IC50 values in the inhibition assays as well as ATXB3, a non-neutralizing antibody, were tested for their affinity to the human ATX-beta isoform, as measured by surface plasmon resonance. Due to nonspecific binding of the ATX antigen to the chip surface, these experiments had to be conducted in the reverse format, with ATX immobilized on the chip surface (ligand) and our antibodies in solution (analyte).
Binder,Kd,koff,kon
B1,0.329 nM,0.000292 s⁻¹,444000 M⁻¹ s⁻¹
B3,0.369 nM,0.000583 s⁻¹,789000 M⁻¹ s⁻¹
B4,0.6 nM,0.000329 s⁻¹,274000 M⁻¹ s⁻¹
B5,1.77 nM,0.000883 s⁻¹,249000 M⁻¹ s⁻¹
B8,0.715 nM,0.000303 s⁻¹,212000 M⁻¹ s⁻¹
B6,47.8 nM,0.000322 s⁻¹,3370 M⁻¹ s⁻¹
